Reference: paper PMC9482650, “Quantitative fragmentomics allow affinity mapping of interactomes” (Nature Communications, 2022)

Columns and labels:
Assay in all cases: holdup assay
Parameters in all cases: key: below the threshold = too weak to quantify, mostly under pKd 3.1 to 4
Settings in all cases: plain residues with an end cap or a label only (N-terminal biotin on a linker: ado-ado)
ARHGEF11, O15085 = target: T1, ARHGEF11, O15085
T1 sequence (O15085 42-136, limits assumed, looked up): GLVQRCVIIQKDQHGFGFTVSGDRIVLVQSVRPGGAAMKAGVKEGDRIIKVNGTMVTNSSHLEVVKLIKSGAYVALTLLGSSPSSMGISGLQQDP

DLG1_1, Q12959 = target: DLG1_1, Q12959
DLG2_3, Q15700 = target: DLG2_3, Q15700
DLG3_2, Q92796 = target: T2, DLG3_2, Q92796
T2 sequence (Q92796 221-321, limits assumed, looked up): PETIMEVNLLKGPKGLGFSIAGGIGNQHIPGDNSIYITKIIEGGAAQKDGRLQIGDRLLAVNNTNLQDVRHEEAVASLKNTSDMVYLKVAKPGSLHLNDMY

DLG5_1, Q8TDM6 = target: DLG5_1, Q8TDM6
Chain of DLG5_1, Q8TDM6 (Q8TDM6 617-713): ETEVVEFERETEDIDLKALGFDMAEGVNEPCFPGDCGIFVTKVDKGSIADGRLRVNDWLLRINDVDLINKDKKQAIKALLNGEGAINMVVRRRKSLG

FRMPD1, Q5SYB0 = target: T3, FRMPD1, Q5SYB0
T3 sequence (Q5SYB0 52-145, limits assumed, looked up): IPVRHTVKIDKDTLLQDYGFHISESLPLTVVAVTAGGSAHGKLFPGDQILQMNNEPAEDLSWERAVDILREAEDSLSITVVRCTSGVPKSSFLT

GIPC2, Q8TF65 = target: GIPC2, Q8TF65
Chain of GIPC2, Q8TF65 (Q8TF65 112-203): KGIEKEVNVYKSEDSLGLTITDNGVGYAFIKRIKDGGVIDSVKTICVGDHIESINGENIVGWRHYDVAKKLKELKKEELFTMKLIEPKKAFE

GORASP2, Q9H8Y8 = target: GORASP2, Q9H8Y8
GRASP, Q7Z6J2 = target: GRASP, Q7Z6J2
Chain of GRASP, Q7Z6J2 (Q7Z6J2 96-193): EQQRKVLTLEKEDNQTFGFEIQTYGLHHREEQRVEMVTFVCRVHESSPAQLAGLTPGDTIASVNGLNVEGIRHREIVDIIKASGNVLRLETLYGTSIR

GRID2IP_1, A4D2P6 = target: GRID2IP_1, A4D2P6
Chain of GRID2IP_1, A4D2P6 (A4D2P6 1-87): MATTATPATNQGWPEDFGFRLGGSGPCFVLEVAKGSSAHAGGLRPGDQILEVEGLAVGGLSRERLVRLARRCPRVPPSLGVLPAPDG

Inadl_1, Q8NI35 = target: Inadl_1, Q8NI35
Chain of Inadl_1, Q8NI35 (Q8NI35 113-229): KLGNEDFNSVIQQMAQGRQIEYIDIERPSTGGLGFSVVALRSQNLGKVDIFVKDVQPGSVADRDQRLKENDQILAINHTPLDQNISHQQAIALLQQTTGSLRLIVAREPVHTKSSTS

Inadl_10, Q8NI35 = target: Inadl_10, Q8NI35
Chain of Inadl_10, Q8NI35 (Q8NI35 1673-1763): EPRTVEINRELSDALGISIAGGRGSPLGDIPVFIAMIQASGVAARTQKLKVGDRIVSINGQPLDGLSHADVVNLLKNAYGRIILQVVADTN

Inadl_5, Q8NI35 = target: Inadl_5, Q8NI35
Chain of Inadl_5, Q8NI35 (Q8NI35 673-780): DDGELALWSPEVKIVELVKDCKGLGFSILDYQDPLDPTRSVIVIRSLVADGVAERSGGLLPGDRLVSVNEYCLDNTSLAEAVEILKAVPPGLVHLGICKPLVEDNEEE

Inadl_9, Q8NI35 = target: Inadl_9, Q8NI35
Chain of Inadl_9, Q8NI35 (Q8NI35 1530-1615): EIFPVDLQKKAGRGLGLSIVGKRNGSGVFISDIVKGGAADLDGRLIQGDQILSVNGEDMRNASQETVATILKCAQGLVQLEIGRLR

LIN7A, O14910 = target: T4, LIN7A, O14910
T4 sequence (O14910 103-200, limits assumed, looked up): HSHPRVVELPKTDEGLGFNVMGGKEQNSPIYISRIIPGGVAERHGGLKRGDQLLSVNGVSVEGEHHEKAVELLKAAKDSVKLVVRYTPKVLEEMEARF

LNX1_1, Q8TBB1 = target: LNX1_1, Q8TBB1
Chain of LNX1_1, Q8TBB1 (Q8TBB1 261-371): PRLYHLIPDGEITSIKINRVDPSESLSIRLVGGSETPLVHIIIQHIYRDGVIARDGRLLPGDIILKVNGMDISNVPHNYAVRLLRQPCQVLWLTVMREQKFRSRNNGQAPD

MAGI2_2, Q86UL8 = target: MAGI2_2, Q86UL8
Chain of MAGI2_2, Q86UL8 (Q86UL8 410-522): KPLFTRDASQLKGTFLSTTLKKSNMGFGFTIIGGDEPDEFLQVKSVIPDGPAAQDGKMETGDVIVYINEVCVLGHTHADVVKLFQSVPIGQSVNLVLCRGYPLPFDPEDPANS

MAGI2_3, Q86UL8 = target: MAGI2_3, Q86UL8
Chain of MAGI2_3, Q86UL8 (Q86UL8 600-682): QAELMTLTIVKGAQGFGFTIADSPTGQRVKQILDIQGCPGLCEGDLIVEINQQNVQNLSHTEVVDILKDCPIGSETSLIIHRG

MAGI2_6, Q86UL8 = target: MAGI2_6, Q86UL8
Chain of MAGI2_6, Q86UL8 (Q86UL8 1141-1229): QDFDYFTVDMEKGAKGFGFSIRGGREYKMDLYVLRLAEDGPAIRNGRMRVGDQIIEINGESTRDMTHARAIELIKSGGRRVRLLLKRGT

MAST2, Q6P0Q8 = target: MAST2, Q6P0Q8
Chain of MAST2, Q6P0Q8 (Q6P0Q8 1099-1202): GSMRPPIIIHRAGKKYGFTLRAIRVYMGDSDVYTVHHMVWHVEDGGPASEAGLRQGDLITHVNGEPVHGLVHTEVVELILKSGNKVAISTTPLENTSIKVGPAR

MPDZ_12, O75970 = target: T5, MPDZ_12, O75970
T5 sequence (O75970 1857-1958, limits assumed, looked up): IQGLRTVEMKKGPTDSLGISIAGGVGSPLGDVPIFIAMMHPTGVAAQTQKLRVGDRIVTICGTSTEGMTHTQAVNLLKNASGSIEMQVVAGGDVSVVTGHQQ

NHERF2_2, Q15599 = target: NHERF2_2, Q15599
Chain of NHERF2_2, Q15599 (Q15599 142-238): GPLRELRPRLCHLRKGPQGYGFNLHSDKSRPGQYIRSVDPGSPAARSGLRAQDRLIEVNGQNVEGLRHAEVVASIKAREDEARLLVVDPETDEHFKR

NHERF4_4, Q86UT5 = target: NHERF4_4, Q86UT5
Chain of NHERF4_4, Q86UT5 (Q86UT5 464-550): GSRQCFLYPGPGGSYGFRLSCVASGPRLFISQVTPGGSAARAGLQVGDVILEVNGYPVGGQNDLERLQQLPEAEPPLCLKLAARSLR

PCLO, Q9Y6V0 = target: T6, PCLO, Q9Y6V0
T6 sequence (Q9Y6V0 4491-4600, limits assumed, looked up): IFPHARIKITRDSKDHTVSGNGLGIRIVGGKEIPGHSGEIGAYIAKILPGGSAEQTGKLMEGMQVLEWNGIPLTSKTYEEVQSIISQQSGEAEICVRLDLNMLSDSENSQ

PDZRN4_1, Q6ZMN7 = target: PDZRN4_1, Q6ZMN7
Chain of PDZRN4_1, Q6ZMN7 (Q6ZMN7 213-318): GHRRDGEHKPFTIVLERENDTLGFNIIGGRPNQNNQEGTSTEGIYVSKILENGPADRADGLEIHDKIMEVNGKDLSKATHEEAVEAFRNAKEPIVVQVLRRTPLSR

PTPN13_1, Q12923 = target: T7, PTPN13_1, Q12923
T7 sequence (Q12923 1088-1188, limits assumed, looked up): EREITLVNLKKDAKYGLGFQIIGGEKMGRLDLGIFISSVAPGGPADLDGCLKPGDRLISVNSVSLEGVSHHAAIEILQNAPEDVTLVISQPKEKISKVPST

PTPN3, P26045 = target: PTPN3, P26045
Chain of PTPN3, P26045 (P26045 505-587): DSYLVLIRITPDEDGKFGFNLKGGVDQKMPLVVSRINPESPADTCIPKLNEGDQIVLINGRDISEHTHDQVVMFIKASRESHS

SHANK1, Q9Y566 = target: T8, SHANK1, Q9Y566
T8 sequence (Q9Y566 658-767, limits assumed, looked up): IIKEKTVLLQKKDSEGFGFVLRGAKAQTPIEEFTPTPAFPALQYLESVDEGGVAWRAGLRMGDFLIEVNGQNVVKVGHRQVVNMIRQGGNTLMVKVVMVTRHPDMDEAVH

TX1BP3, O14907 = target: T9, TX1BP3, O14907
T9 sequence (O14907 10-122, limits assumed, looked up): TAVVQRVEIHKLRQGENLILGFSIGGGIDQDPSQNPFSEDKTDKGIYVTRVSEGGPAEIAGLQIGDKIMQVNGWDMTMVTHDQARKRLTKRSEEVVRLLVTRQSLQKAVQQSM

Row | Binder | pKd (ARHGEF11, O15085) | pKd (DLG1_1, Q12959) | pKd (DLG2_3, Q15700) | pKd (DLG3_2, Q92796) | pKd (DLG5_1, Q8TDM6) | pKd (FRMPD1, Q5SYB0) | pKd (GIPC2, Q8TF65) | pKd (GORASP2, Q9H8Y8) | pKd (GRASP, Q7Z6J2) | pKd (GRID2IP_1, A4D2P6) | pKd (Inadl_1, Q8NI35) | pKd (Inadl_10, Q8NI35) | pKd (Inadl_5, Q8NI35) | pKd (Inadl_9, Q8NI35) | pKd (LIN7A, O14910) | pKd (LNX1_1, Q8TBB1) | pKd (MAGI2_2, Q86UL8) | pKd (MAGI2_3, Q86UL8) | pKd (MAGI2_6, Q86UL8) | pKd (MAST2, Q6P0Q8) | also measured
1 | EALLQMESVA [CAVIN3, Q969G5] | below the threshold | below the threshold | 3.84 | 4.21 | below the threshold | below the threshold | 3.97 | below the threshold | below the threshold | below the threshold | below the threshold | below the threshold | below the threshold | below the threshold | below the threshold | 3.81 | below the threshold | below the threshold | below the threshold | below the threshold | pKd (MPDZ_12, O75970): below the threshold; pKd (NHERF2_2, Q15599): below the threshold; pKd (NHERF4_4, Q86UT5): below the threshold; pKd (PCLO, Q9Y6V0): below the threshold; pKd (PDZRN4_1, Q6ZMN7): below the threshold; pKd (PTPN13_1, Q12923): below the threshold; pKd (PTPN3, P26045): below the threshold; pKd (SHANK1, Q9Y566): below the threshold; pKd (TX1BP3, O14907): below the threshold
2 | VKPQVSESKL [ACOT8, O14734] | below the threshold | below the threshold | 3.74 | 4.17 | below the threshold | below the threshold | below the threshold | below the threshold | below the threshold | below the threshold | below the threshold | below the threshold | below the threshold | below the threshold | below the threshold | below the threshold | 3.64 | below the threshold | below the threshold | 5.52 | pKd (MPDZ_12, O75970): below the threshold; pKd (NHERF2_2, Q15599): 4.56; pKd (NHERF4_4, Q86UT5): below the threshold; pKd (PCLO, Q9Y6V0): below the threshold; pKd (PDZRN4_1, Q6ZMN7): 3.83; pKd (PTPN13_1, Q12923): below the threshold; pKd (PTPN3, P26045): 4.63; pKd (SHANK1, Q9Y566): 4.01; pKd (TX1BP3, O14907): below the threshold

Second part, led by results:

Row | pKd (ARHGEF11, O15085) | pKd (DLG1_1, Q12959) | pKd (DLG2_3, Q15700) | pKd (DLG3_2, Q92796) | pKd (DLG5_1, Q8TDM6) | pKd (FRMPD1, Q5SYB0) | pKd (GIPC2, Q8TF65) | pKd (GORASP2, Q9H8Y8) | pKd (GRASP, Q7Z6J2) | pKd (GRID2IP_1, A4D2P6) | pKd (Inadl_1, Q8NI35) | pKd (Inadl_10, Q8NI35) | pKd (Inadl_5, Q8NI35) | pKd (Inadl_9, Q8NI35) | pKd (LIN7A, O14910) | pKd (LNX1_1, Q8TBB1) | pKd (MAGI2_2, Q86UL8) | pKd (MAGI2_3, Q86UL8) | pKd (MAGI2_6, Q86UL8) | pKd (MAST2, Q6P0Q8) | Binder | also measured
3 | 3.94 | below the threshold | below the threshold | below the threshold | below the threshold | below the threshold | below the threshold | 4.36 | 3.82 | below the threshold | below the threshold | below the threshold | 3.6 | below the threshold | below the threshold | 3.94 | 3.67 | 3.63 | 3.72 | 3.77 | FNSYSLTGYV [CLDN2, P57739] | pKd (MPDZ_12, O75970): below the threshold; pKd (NHERF2_2, Q15599): below the threshold; pKd (NHERF4_4, Q86UT5): 3.99; pKd (PCLO, Q9Y6V0): below the threshold; pKd (PDZRN4_1, Q6ZMN7): 3.49; pKd (PTPN13_1, Q12923): below the threshold; pKd (PTPN3, P26045): below the threshold; pKd (SHANK1, Q9Y566): below the threshold; pKd (TX1BP3, O14907): 4.3
4 | 3.78 | below the threshold | below the threshold | below the threshold | 3.48 | below the threshold | 3.8 | below the threshold | 3.58 | below the threshold | below the threshold | below the threshold | below the threshold | below the threshold | 3.56 | 3.83 | 3.55 | 3.55 | 4.26 | 5.62 | PRAEAEDSFL [PDGFRB, P09619] | pKd (MPDZ_12, O75970): below the threshold; pKd (NHERF2_2, Q15599): 5.05; pKd (NHERF4_4, Q86UT5): 4.03; pKd (PCLO, Q9Y6V0): below the threshold; pKd (PDZRN4_1, Q6ZMN7): 3.69; pKd (PTPN13_1, Q12923): below the threshold; pKd (PTPN3, P26045): 4.45; pKd (SHANK1, Q9Y566): 3.51; pKd (TX1BP3, O14907): 4.34
